Reference: patent publication US7807471

Biological target: recombinant murine IL-12 (R&D Systems) (murine) (UniProt P43431)
Test: cell-based or functional assay

C17.8 (rat anti-mouse IL-12/IL-23p40, IgG2a) (antibody)
in vitro neutralization of IL-12 (times (against the anti-p35 mAb)): 5
